B1: MYOZ1 (parent)
chain: FSDSSMDHFQKFLPTVGGQLGTAG
B2: POLD4 (parent)
chain: ITDSYPVVKRREGPAGHSKGELAP

Variants of: B1
Test: protein stability index of a GFP-peptide fusion (GPS, HEK-293T) (PSI 1-6); higher = more stable
Settings: c terminus: a fixed tail appended
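Further: lentivirally expressed fusions sorted by FACS into six bins by GFP to DsRed ratio, PSI derived from sequencing read proportions per bin multiplied by bin number.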

| Variant | protein stability index |
| --- | --- |
| G24C | 1.95 |
| G24Q | 1.98 |
| G24T | 1.89 |
| G24P | 2.25 |
| G24R | 2.22 |
| G24L | 2.36 |
| G24E | 2.54 |
| G24S | 1.98 |
| G24H | 2.33 |
| G24D | 3.09 |
| G24I | 1.54 |
| G24Y | 1.2 |
| G24M | 1.92 |
| G24K | 2.16 |
| G24N | 2.03 |
| G24W | 1.23 |
| G24A | 1.71 |
| G24V | 2.42 |
| A23D | 2.68 |
| A23G | 2.77 |
| A23I | 1.91 |
| A23R | 2.95 |
| A23M | 1.63 |

| Variant | protein stability index |
| --- | --- |
| A23E | 2.92 |
| A23N | 2.68 |
| A23Y | 2.19 |
| A23K | 2.14 |
| A23T | 2.59 |
| A23P | 2.22 |
| A23Q | 2.62 |
| A23C | 2.08 |
| A23W | 2.01 |
| A23F | 2.49 |
| A23H | 2.3 |
| A23L | 2.01 |
| A23S | 1.83 |
| G21A | 1.87 |
| G21F | 1.62 |
| G21W | 1.76 |
| G21Y | 1.59 |
| G21C | 1.61 |
| G21I | 1.76 |
| G21D | 2.81 |
| G21K | 2.32 |
| G21S | 1.69 |
| G21Q | 2.04 |

| Variant | protein stability index |
| --- | --- |
| G21M | 2.28 |
| G21P | 2.54 |
| G21V | 1.75 |
| G21T | 2.13 |
| G21R | 2.25 |
| G21L | 2.71 |
| G21H | 2.14 |
| G21E | 2.35 |
| G21N | 2.98 |
| L20D | 3.24 |
| L20C | 1.66 |
| L20Q | 2.66 |
| L20S | 3.71 |
| L20F | 2.25 |
| L20E | 3.51 |
| L20W | 1.56 |
| L20K | 3.1 |
| L20V | 2.25 |
| L20H | 2.79 |
| L20Y | 2.27 |
| L20R | 2.98 |
| L20I | 2.69 |
| L20N | 2.97 |

| Variant | protein stability index |
| --- | --- |
| L20A | 2.58 |
| L20G | 3.24 |
| L20P | 3.12 |
| L20T | 2.53 |
| L20M | 2.35 |
| T22C | 1.81 |
| T22F | 1.82 |
| T22G | 2.09 |
| T22H | 1.86 |
| T22S | 2.19 |
| T22D | 2.86 |
| T22Q | 2.36 |
| T22K | 3.06 |
| T22E | 3.05 |
| T22M | 2.14 |
| T22L | 3.17 |
| T22Y | 2.05 |
| T22N | 2.54 |
| T22W | 1.43 |
| T22P | 2.15 |
| T22I | 2.57 |
| T22R | 2.16 |
| T22A | 2.29 |

Variants of: B2
Test: as above
Settings: c terminus: a fixed tail appended

| Variant | protein stability index |
| --- | --- |
| A23Q | 3.31 |
| A23L | 3.2 |
| A23E | 3.21 |
| A23T | 2.68 |
| A23K | 3.65 |
| A23S | 3.59 |
| A23R | 3.01 |
| A23P | 2.96 |
| A23D | 2.69 |
| A23G | 2.68 |
| A23M | 2.1 |
| A23W | 3.43 |
| T2D | 4.35 |
| T2M | 3.78 |
| T2P | 3.71 |
| T2V | 3.36 |
| T2H | 4.41 |
| L22E | 3.94 |
| L22D | 3.81 |
| L22K | 3.71 |
| L22S | 3.27 |
| L22T | 3.21 |
| L22V | 3.42 |
| L22C | 3.26 |
| L22W | 3.04 |

| Variant | protein stability index |
| --- | --- |
| L22I | 3.1 |
| L22H | 3.2 |
| V7W | 4.17 |
| V7G | 4.93 |
| V7D | 4.8 |
| V7F | 3.45 |
| V7A | 4.02 |
| V7C | 3.63 |
| V7T | 4.18 |
| V7E | 5.27 |
| G16F | 3.33 |
| G16H | 3.08 |
| G16D | 3.77 |
| G16A | 4.75 |
| G16M | 2.56 |
| G16T | 3.62 |
| G16V | 2.57 |
| G16E | 3.83 |
| G16W | 2.66 |
| G16R | 3.64 |
| G16P | 3.28 |
| G16Q | 3.5 |
| G16S | 2.51 |
| G16K | 3.07 |
| V8H | 4.07 |

| Variant | protein stability index |
| --- | --- |
| V8F | 4.32 |
| V8D | 5.21 |
| V8C | 3.79 |
| V8P | 4.35 |
| V8S | 4.84 |
| V8I | 3.26 |
| V8Q | 3.1 |
| V8T | 4.42 |
| V8W | 3.16 |
| V8N | 4.21 |
| V8M | 3.98 |
| V8K | 3.2 |
| V8E | 5.31 |
| S4Q | 3.81 |
| S4H | 2.67 |
| S4N | 4.16 |
| S4P | 4.58 |
| S4I | 3.51 |
| K19L | 2.81 |
| K19I | 2.79 |
| K19Q | 3.16 |
| K19R | 2.81 |
| K19N | 2.59 |
| K19T | 3.62 |
| K19F | 2.48 |

| Variant | protein stability index |
| --- | --- |
| K19E | 3.28 |
| K19Y | 3.06 |
| K19H | 3.56 |
| K19M | 2.9 |
| K19D | 3.96 |
| I1C | 4.11 |
| I1H | 3.73 |
| I1A | 4.82 |
| I1T | 4.79 |
| I1P | 3.23 |
| I1M | 2.72 |
| I1V | 4.4 |
| P6T | 4.55 |
| P6E | 4.33 |
| P6N | 4.51 |
| P6D | 5.12 |
| P6A | 3.48 |
| P6L | 3.75 |
| P6G | 4.67 |
| P6S | 3.53 |
| P6I | 4.17 |
| P6F | 3.52 |
| P6W | 3.4 |
| A15I | 2.58 |
| A15K | 3.45 |

| Variant | protein stability index |
| --- | --- |
| A15V | 3.23 |
| A15N | 2.97 |
| A15C | 2.8 |
| A15M | 3.08 |
| Y5E | 5.69 |
| Y5M | 3.5 |
| Y5S | 4.91 |
| Y5H | 5.39 |
| Y5W | 3.08 |
| Y5V | 4.23 |
| Y5R | 4.72 |
| Y5K | 5.3 |
| Y5N | 4.98 |
| Y5Q | 5.68 |
| Y5L | 4.59 |
| Y5C | 3.78 |
| Y5P | 5.13 |
| Y5T | 3.5 |
| R11C | 3.68 |
| R11Q | 4.37 |
| R11F | 2.43 |
| R11K | 3.54 |
| R11S | 3.23 |
| R11E | 5.14 |
| R11N | 3.28 |

| Variant | protein stability index |
| --- | --- |
| R11P | 3.28 |
| R11Y | 3.36 |
| R11D | 4.79 |
| R11L | 2.98 |
| R11V | 2.69 |
| R11H | 3.28 |
| R10Q | 3.8 |
| R10T | 3.6 |
| R10G | 4.21 |
| R10Y | 4.05 |
| R10I | 3.38 |
| R10C | 3.79 |
| R10H | 4.33 |
| R10K | 2.39 |
| R10A | 4.56 |
| R10W | 3.07 |
| R10S | 3.89 |
| E12C | 2.1 |
| E12Y | 2.48 |
| E12H | 2.72 |
| E12N | 2.85 |
| E12A | 2.52 |
| E12M | 2.87 |
| E12T | 3.41 |
| E12R | 2.65 |

| Variant | protein stability index |
| --- | --- |
| E12W | 2.88 |
| E12I | 3.53 |
| E12K | 3.11 |
| S18H | 3.35 |
| S18W | 2.8 |
| S18V | 2.1 |
| S18G | 3.94 |
| S18D | 4.01 |
| S18E | 3.26 |
| S18T | 2.87 |
| S18Y | 2.46 |
| S18C | 3.17 |
| S18Q | 3.65 |
| S18R | 3.14 |
| G20K | 2.62 |
| G20V | 3.07 |
| G20I | 2.99 |
| G20L | 3.11 |
| G20F | 2.81 |
| G20M | 3.49 |
| G20W | 2.83 |
| G20Q | 2.41 |
| G20D | 3.55 |
| E21T | 2.75 |
| E21K | 3 |

| Variant | protein stability index |
| --- | --- |
| E21H | 3.23 |
| E21G | 3.23 |
| E21N | 3.1 |
| E21V | 3.03 |
| E21P | 4.46 |
| E21R | 2.13 |
| E21D | 3.37 |
| K9W | 4.14 |
| K9S | 4.41 |
| K9R | 3.25 |
| K9V | 4.06 |
| K9D | 4.63 |
| K9G | 5.01 |
| K9C | 3.95 |
| K9E | 4.83 |
| D3M | 3.2 |
| D3H | 2.97 |
| D3W | 1.99 |
| D3C | 1.78 |
| D3V | 2 |
| D3K | 3.89 |
| D3T | 4.2 |
| D3G | 4.07 |
| D3N | 2.68 |
| D3Y | 2.74 |

| Variant | protein stability index |
| --- | --- |
| H17V | 3.2 |
| H17Y | 2.66 |
| H17A | 2.97 |
| H17I | 3.49 |
| H17S | 3.78 |
| H17E | 4.36 |
| H17L | 3.49 |
| H17K | 4.05 |
| H17C | 2.06 |
| H17D | 2.31 |
| P14L | 3.24 |
| P14S | 2.43 |
| P14K | 2.97 |
| P14D | 2.94 |
| P14N | 3.55 |
| P14R | 2.46 |
| P14G | 2.98 |
| P14H | 3.84 |
| P14C | 3.14 |
| P14I | 3.1 |
| P14T | 3.57 |
| P14Y | 2.81 |
| P24E | 3.66 |
| P24R | 2.77 |
| P24Y | 2.38 |

| Variant | protein stability index |
| --- | --- |
| P24Q | 4.1 |
| P24M | 2.89 |
| P24F | 4.06 |
| P24W | 2.73 |
| P24S | 3.93 |
| P24I | 1.97 |
| P24L | 3.56 |
| G13F | 2.45 |
| G13R | 3.7 |
| G13E | 3.86 |
| G13C | 3.87 |
| G13D | 3.94 |
| G13Y | 3.11 |
| G13T | 3.19 |
| G13L | 2.75 |
| G13I | 2.7 |
| G13Q | 3.32 |
